# In patent US20250327097A1, “ORGANISMS PRODUCING LESS CROTONIC ACID” (Global Bioenergies, priority 2021, published 2025):
# System: 3-methylcrotonic acid
# Assay type: biochemical, Yersinia frederiksenii
# Parameters: key: “+” representing a low increase in activity; “++++” representing a high increase in activity
row,Molecule,Activity relative to WT
1,I283T-N285P-N287T-Q290E-S322T-N388M-K394R-C430A-L432F-L434W-S436N-C437L-dG462 (protein) MFLKSLREQINLLKRQGDLRIINRPVDSYLEAAAIIRRSTETKAPVPLMTNIKGYPGCSIVGGLAALSSNPEYPLSRVAMSLGLSTTASAQSIVQYLIDGLKKTPYLPVEIDSNSAPCKQNILRGEDASLAHFPIPQVHQHDGNRYVNTWGVFIVESPDGQWCNWSIQRVQYLNDRQMIALVFPSQHISDIWEEWVKIGKPMPYALVQGCEPIVPYIAGLPLLERNVNEAEYIGALYGKGIEVVKCETHDLRVPASSEVVIEGYFAITREGVEGPFGEFAGYTPPETSLEPILSITAISWQDDPIWPVVAEGKPVDEYHTCTGIGDAAAIQNVLLTANLPVSFVWVPLYSACHLMIVSINRHWRQTHPDLTSEQLTKKVGDVIHQTRMSIKLPRIVVLDDDVDPADTESLLWALATRIHPERKRYFYESAIFPWLNLYSEEERHNRKGKRVIIDALLPENHGAISSFDYAYPDDIKQRVLMHWETDFSHD,++++
2,I283T-N285P-N287T-Q290E-S322T-N388M-K394R-C430A-L432F-L434W-S436N-Y438W-dG462 (protein) MFLKSLREQINLLKRQGDLRIINRPVDSYLEAAAIIRRSTETKAPVPLMTNIKGYPGCSIVGGLAALSSNPEYPLSRVAMSLGLSTTASAQSIVQYLIDGLKKTPYLPVEIDSNSAPCKQNILRGEDASLAHFPIPQVHQHDGNRYVNTWGVFIVESPDGQWCNWSIQRVQYLNDRQMIALVFPSQHISDIWEEWVKIGKPMPYALVQGCEPIVPYIAGLPLLERNVNEAEYIGALYGKGIEVVKCETHDLRVPASSEVVIEGYFAITREGVEGPFGEFAGYTPPETSLEPILSITAISWQDDPIWPVVAEGKPVDEYHTCTGIGDAAAIQNVLLTANLPVSFVWVPLYSACHLMIVSINRHWRQTHPDLTSEQLTKKVGDVIHQTRMSIKLPRIVVLDDDVDPADTESLLWALATRIHPERKRYFYESAIFPWLNCWSEEERHNRKGKRVIIDALLPENHGAISSFDYAYPDDIKQRVLMHWETDFSHD,++++
3,I283T-N285P-N287T-Q290E-S322T-N388M-K394R-C430A-L432F-L434W-S436N-C437T-dG462 (protein) MFLKSLREQINLLKRQGDLRIINRPVDSYLEAAAIIRRSTETKAPVPLMTNIKGYPGCSIVGGLAALSSNPEYPLSRVAMSLGLSTTASAQSIVQYLIDGLKKTPYLPVEIDSNSAPCKQNILRGEDASLAHFPIPQVHQHDGNRYVNTWGVFIVESPDGQWCNWSIQRVQYLNDRQMIALVFPSQHISDIWEEWVKIGKPMPYALVQGCEPIVPYIAGLPLLERNVNEAEYIGALYGKGIEVVKCETHDLRVPASSEVVIEGYFAITREGVEGPFGEFAGYTPPETSLEPILSITAISWQDDPIWPVVAEGKPVDEYHTCTGIGDAAAIQNVLLTANLPVSFVWVPLYSACHLMIVSINRHWRQTHPDLTSEQLTKKVGDVIHQTRMSIKLPRIVVLDDDVDPADTESLLWALATRIHPERKRYFYESAIFPWLNTYSEEERHNRKGKRVIIDALLPENHGAISSFDYAYPDDIKQRVLMHWETDFSHD,++++
4,I283T-N285P-N287T-Q290E-S322T-N388M-K394R-C430A-L432F-L434W-S436N-C437M-dG462 (protein) MFLKSLREQINLLKRQGDLRIINRPVDSYLEAAAIIRRSTETKAPVPLMTNIKGYPGCSIVGGLAALSSNPEYPLSRVAMSLGLSTTASAQSIVQYLIDGLKKTPYLPVEIDSNSAPCKQNILRGEDASLAHFPIPQVHQHDGNRYVNTWGVFIVESPDGQWCNWSIQRVQYLNDRQMIALVFPSQHISDIWEEWVKIGKPMPYALVQGCEPIVPYIAGLPLLERNVNEAEYIGALYGKGIEVVKCETHDLRVPASSEVVIEGYFAITREGVEGPFGEFAGYTPPETSLEPILSITAISWQDDPIWPVVAEGKPVDEYHTCTGIGDAAAIQNVLLTANLPVSFVWVPLYSACHLMIVSINRHWRQTHPDLTSEQLTKKVGDVIHQTRMSIKLPRIVVLDDDVDPADTESLLWALATRIHPERKRYFYESAIFPWLNMYSEEERHNRKGKRVIIDALLPENHGAISSFDYAYPDDIKQRVLMHWETDFSHD,++++
5,I283T-N285P-N287T-Q290E-S322T-N388M-K394R-C430A-L432F-L434W-S436N-C437I-dG462 (protein) MFLKSLREQINLLKRQGDLRIINRPVDSYLEAAAIIRRSTETKAPVPLMTNIKGYPGCSIVGGLAALSSNPEYPLSRVAMSLGLSTTASAQSIVQYLIDGLKKTPYLPVEIDSNSAPCKQNILRGEDASLAHFPIPQVHQHDGNRYVNTWGVFIVESPDGQWCNWSIQRVQYLNDRQMIALVFPSQHISDIWEEWVKIGKPMPYALVQGCEPIVPYIAGLPLLERNVNEAEYIGALYGKGIEVVKCETHDLRVPASSEVVIEGYFAITREGVEGPFGEFAGYTPPETSLEPILSITAISWQDDPIWPVVAEGKPVDEYHTCTGIGDAAAIQNVLLTANLPVSFVWVPLYSACHLMIVSINRHWRQTHPDLTSEQLTKKVGDVIHQTRMSIKLPRIVVLDDDVDPADTESLLWALATRIHPERKRYFYESAIFPWLNIYSEEERHNRKGKRVIIDALLPENHGAISSFDYAYPDDIKQRVLMHWETDFSHD,++++
6,I283T-N285P-N287T-Q290E-S322T-N388M-K394R-C430A-L432F-L434W-S436N-Y438M-dG462 (protein) MFLKSLREQINLLKRQGDLRIINRPVDSYLEAAAIIRRSTETKAPVPLMTNIKGYPGCSIVGGLAALSSNPEYPLSRVAMSLGLSTTASAQSIVQYLIDGLKKTPYLPVEIDSNSAPCKQNILRGEDASLAHFPIPQVHQHDGNRYVNTWGVFIVESPDGQWCNWSIQRVQYLNDRQMIALVFPSQHISDIWEEWVKIGKPMPYALVQGCEPIVPYIAGLPLLERNVNEAEYIGALYGKGIEVVKCETHDLRVPASSEVVIEGYFAITREGVEGPFGEFAGYTPPETSLEPILSITAISWQDDPIWPVVAEGKPVDEYHTCTGIGDAAAIQNVLLTANLPVSFVWVPLYSACHLMIVSINRHWRQTHPDLTSEQLTKKVGDVIHQTRMSIKLPRIVVLDDDVDPADTESLLWALATRIHPERKRYFYESAIFPWLNCMSEEERHNRKGKRVIIDALLPENHGAISSFDYAYPDDIKQRVLMHWETDFSHD,++++
7,I283T-N285P-N287T-Q290E-S322T-N388M-K394R-C430A-L432F-L434W-S436N-S439P-dG462 (protein) MFLKSLREQINLLKRQGDLRIINRPVDSYLEAAAIIRRSTETKAPVPLMTNIKGYPGCSIVGGLAALSSNPEYPLSRVAMSLGLSTTASAQSIVQYLIDGLKKTPYLPVEIDSNSAPCKQNILRGEDASLAHFPIPQVHQHDGNRYVNTWGVFIVESPDGQWCNWSIQRVQYLNDRQMIALVFPSQHISDIWEEWVKIGKPMPYALVQGCEPIVPYIAGLPLLERNVNEAEYIGALYGKGIEVVKCETHDLRVPASSEVVIEGYFAITREGVEGPFGEFAGYTPPETSLEPILSITAISWQDDPIWPVVAEGKPVDEYHTCTGIGDAAAIQNVLLTANLPVSFVWVPLYSACHLMIVSINRHWRQTHPDLTSEQLTKKVGDVIHQTRMSIKLPRIVVLDDDVDPADTESLLWALATRIHPERKRYFYESAIFPWLNCYPEEERHNRKGKRVIIDALLPENHGAISSFDYAYPDDIKQRVLMHWETDFSHD,++++
8,I283T-N285P-N287T-Q290E-S322T-N388M-K394R-C430A-L432F-L434W-S436N-K447T-dG462 (protein) MFLKSLREQINLLKRQGDLRIINRPVDSYLEAAAIIRRSTETKAPVPLMTNIKGYPGCSIVGGLAALSSNPEYPLSRVAMSLGLSTTASAQSIVQYLIDGLKKTPYLPVEIDSNSAPCKQNILRGEDASLAHFPIPQVHQHDGNRYVNTWGVFIVESPDGQWCNWSIQRVQYLNDRQMIALVFPSQHISDIWEEWVKIGKPMPYALVQGCEPIVPYIAGLPLLERNVNEAEYIGALYGKGIEVVKCETHDLRVPASSEVVIEGYFAITREGVEGPFGEFAGYTPPETSLEPILSITAISWQDDPIWPVVAEGKPVDEYHTCTGIGDAAAIQNVLLTANLPVSFVWVPLYSACHLMIVSINRHWRQTHPDLTSEQLTKKVGDVIHQTRMSIKLPRIVVLDDDVDPADTESLLWALATRIHPERKRYFYESAIFPWLNCYSEEERHNRTGKRVIIDALLPENHGAISSFDYAYPDDIKQRVLMHWETDFSHD,++++
9,D27N-I283T-N285P-N287T-Q290E-S322T-N388M-K394R-C430A-L432F-L434W-S436N-G448T-dG462 (protein) MFLKSLREQINLLKRQGDLRIINRPVNSYLEAAAIIRRSTETKAPVPLMTNIKGYPGCSIVGGLAALSSNPEYPLSRVAMSLGLSTTASAQSIVQYLIDGLKKTPYLPVEIDSNSAPCKQNILRGEDASLAHFPIPQVHQHDGNRYVNTWGVFIVESPDGQWCNWSIQRVQYLNDRQMIALVFPSQHISDIWEEWVKIGKPMPYALVQGCEPIVPYIAGLPLLERNVNEAEYIGALYGKGIEVVKCETHDLRVPASSEVVIEGYFAITREGVEGPFGEFAGYTPPETSLEPILSITAISWQDDPIWPVVAEGKPVDEYHTCTGIGDAAAIQNVLLTANLPVSFVWVPLYSACHLMIVSINRHWRQTHPDLTSEQLTKKVGDVIHQTRMSIKLPRIVVLDDDVDPADTESLLWALATRIHPERKRYFYESAIFPWLNCYSEEERHNRKTKRVIIDALLPENHGAISSFDYAYPDDIKQRVLMHWETDFSHD,++++
10,I283T-N285P-N287T-Q290E-S322T-N388M-K394R-C430A-L432F-L434W-S436N-G448C-dG462 (protein) MFLKSLREQINLLKRQGDLRIINRPVDSYLEAAAIIRRSTETKAPVPLMTNIKGYPGCSIVGGLAALSSNPEYPLSRVAMSLGLSTTASAQSIVQYLIDGLKKTPYLPVEIDSNSAPCKQNILRGEDASLAHFPIPQVHQHDGNRYVNTWGVFIVESPDGQWCNWSIQRVQYLNDRQMIALVFPSQHISDIWEEWVKIGKPMPYALVQGCEPIVPYIAGLPLLERNVNEAEYIGALYGKGIEVVKCETHDLRVPASSEVVIEGYFAITREGVEGPFGEFAGYTPPETSLEPILSITAISWQDDPIWPVVAEGKPVDEYHTCTGIGDAAAIQNVLLTANLPVSFVWVPLYSACHLMIVSINRHWRQTHPDLTSEQLTKKVGDVIHQTRMSIKLPRIVVLDDDVDPADTESLLWALATRIHPERKRYFYESAIFPWLNCYSEEERHNRKCKRVIIDALLPENHGAISSFDYAYPDDIKQRVLMHWETDFSHD,++++
